Drawing on paper PMC9595563, this text covers Kd for 1 substance.

For orientation: Kd means the concentration at which binding is half-saturated. High values mean weaker binding, low ones tighter binding.

In the assay the target is SARS-CoV-2 spike protein (Wuhan-Hu-1) with C-terminal histidine, coated in the ELISA of Fig 2C (SARS-CoV-2) (UniProt P0DTC2). The experiment in a line: ELISA.

Sequence of LRRC15-Fc (Q8TF66 22-538): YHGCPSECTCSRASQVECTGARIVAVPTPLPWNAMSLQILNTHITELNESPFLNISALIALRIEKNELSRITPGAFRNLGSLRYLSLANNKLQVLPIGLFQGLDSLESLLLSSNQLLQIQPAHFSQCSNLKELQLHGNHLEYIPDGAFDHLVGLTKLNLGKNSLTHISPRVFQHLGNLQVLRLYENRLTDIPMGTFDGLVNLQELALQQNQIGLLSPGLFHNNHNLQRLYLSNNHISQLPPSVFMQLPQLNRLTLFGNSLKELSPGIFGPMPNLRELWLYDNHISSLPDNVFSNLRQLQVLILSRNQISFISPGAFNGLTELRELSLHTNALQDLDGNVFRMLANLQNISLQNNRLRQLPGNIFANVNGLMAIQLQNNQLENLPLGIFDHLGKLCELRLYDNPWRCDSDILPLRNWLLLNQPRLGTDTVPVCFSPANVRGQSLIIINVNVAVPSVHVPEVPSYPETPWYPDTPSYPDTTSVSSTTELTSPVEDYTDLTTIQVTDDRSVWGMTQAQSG

With “LRRC15-Fc (from UniProt Q8TF66) (Fc fusion)”, the Kd worked out at 109 nM.
